Target: ap2m1_rat Ap2m1 (UniProt P84092)
Sequence (P84092 whole entry): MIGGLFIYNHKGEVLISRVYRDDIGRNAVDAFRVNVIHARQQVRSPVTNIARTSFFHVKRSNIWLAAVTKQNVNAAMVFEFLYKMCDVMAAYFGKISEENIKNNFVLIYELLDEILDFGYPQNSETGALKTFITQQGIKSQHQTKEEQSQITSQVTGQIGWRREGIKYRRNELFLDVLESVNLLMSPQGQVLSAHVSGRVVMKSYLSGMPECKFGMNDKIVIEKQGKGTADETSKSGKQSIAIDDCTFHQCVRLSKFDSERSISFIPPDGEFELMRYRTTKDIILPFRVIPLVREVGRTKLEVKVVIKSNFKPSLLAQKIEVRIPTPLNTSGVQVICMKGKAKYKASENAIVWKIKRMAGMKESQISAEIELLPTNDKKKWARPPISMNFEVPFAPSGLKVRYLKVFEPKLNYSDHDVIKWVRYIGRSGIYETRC

Chain of Trans-Golgi network integral membrane protein TGN38 (Rattus norvegicus (Rat)), P19814 Y350A (P19814 whole entry Y350A): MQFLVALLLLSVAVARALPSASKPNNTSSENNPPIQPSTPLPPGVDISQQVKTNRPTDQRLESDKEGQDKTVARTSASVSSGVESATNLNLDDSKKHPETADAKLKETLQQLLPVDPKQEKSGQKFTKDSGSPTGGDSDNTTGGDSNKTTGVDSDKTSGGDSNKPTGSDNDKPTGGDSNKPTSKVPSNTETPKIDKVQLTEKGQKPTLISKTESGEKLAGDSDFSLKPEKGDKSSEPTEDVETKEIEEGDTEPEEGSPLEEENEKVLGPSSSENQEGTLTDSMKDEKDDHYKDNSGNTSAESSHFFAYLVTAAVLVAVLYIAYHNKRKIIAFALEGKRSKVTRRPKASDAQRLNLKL
Chain of Trans-Golgi network integral membrane protein TGN38 (Rattus norvegicus (Rat)), P19814 S348A (P19814 whole entry S348A): as the sequence (P19814 whole entry Y350A) above, with S348A, A350Y counted along it

Row | effect of a mutation on the interaction | Substance
1 | decreasing interaction | Trans-Golgi network integral membrane protein TGN38 (Rattus norvegicus (Rat)), P19814 S348A
2 | decreasing interaction | Trans-Golgi network integral membrane protein TGN38 (Rattus norvegicus (Rat)), P19814 Y350A

Reference: IntAct's records for PubMed 9162036
